Experimental data taken from patent publication US20240226163A1 (Regeneron, published 2024).

Legend:
[1] = molecular target: HLA-A*02:01 presenting MAGE-A4 286-294 peptide (…) (human); test: cell-based or functional assay
[2] = molecular target: HLA-A*02:01 presenting MAGE-A4 286-294 peptide (…) (human); test: cell-based or functional assay; remark: listed apart in the source
[3] = molecular target: T1, HLA-A*02:01 presenting HEATR5A 1925-1933 peptide (…) (human); test: cell-based or functional assay
[4] = molecular target: HLA-A*02:01 presenting CARD8 170-178 peptide (…) (human); test: cell-based or functional assay
[5] = molecular target: HLA-A*02:01 presenting PCDHGC3 337-345 peptide (…) (human); test: cell-based or functional assay
[6] = molecular target: HLA-A*02:01 presenting PSME2 145-153 peptide (…) (human); test: cell-based or functional assay
[7] = molecular target: HLA-A*02:01 presenting PLEKHH2 790-798 peptide (…) (human); test: cell-based or functional assay
[8] = molecular target: HLA-A*02:01 presenting AOX1 795-803 peptide (…) (human); test: cell-based or functional assay
[9] = molecular target: HLA-A*02:01 presenting FN1 2182-2190 peptide (…) (human); test: cell-based or functional assay
[10] = molecular target: HLA-A*02:01 presenting NBAS 2063-2071 peptide (…) (human); test: cell-based or functional assay
[11] = molecular target: HLA-A*02:01 presenting SHTN1 198-206 peptide (…) (human); test: cell-based or functional assay
[12] = molecular target: HLA-A*02:01 presenting TEP1 2156-2164 peptide (…) (human); test: cell-based or functional assay
[13] = molecular target: HLA-A*02:01 presenting MRPL37 334-342 peptide (…) (human); test: cell-based or functional assay
[14] = molecular target: HLA-A*02:01 presenting RABGAP1L 408-416 peptide (…) (human); test: cell-based or functional assay
[15] = molecular target: HLA-A*02:01 presenting SMIM11A 4-12 peptide (…) (human); test: cell-based or functional assay
[16] = molecular target: HLA-A*02:01 presenting CNOT1 1965-1973 peptide (…) (human); test: cell-based or functional assay
[17] = molecular target: T2, HLA-A*02:01 presenting MAGE-A4 286-294 peptide (…) (human); test: flow cytometry, peptide-pulsed T2 cells;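 note: ratio of peak mean fluorescence intensity across a 12-point threefold antibody dilution series to the MFI with secondary antibody only, live-gated cells by flow cytometry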
T2 construct: On peptide-pulsed T2 cells
Experimental: (§1) Samples were run on an Intellicyt iQue flow cytometer (Intellicyt) and results were analyzed using Forecyte analysis software (Intellicyte) to calculate the mean fluorescent intensity (MFI) after gating for live cells. MFI values were plotted in Graphpad Prism using a four-parameter logistic equation over a 12-point response curve to calculate EC₅₀ values. The secondary antibody alone (i.e. no primary antibody) for each dose-response curve is also included in the analysis as a continuation of the three-fold serial dilution and is represented as the lowest dose. The signal to noise (S/N) was determined by taking the ratio of the highest MFI on the dose response curve to the MFI in the secondary alone wells.

[18] = molecular target: T1, HLA-A*02:01 presenting HEATR5A …; test: flow cytometry, peptide-pulsed T2 cells;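 note: ratio of peak mean fluorescence intensity across a 12-point threefold antibody dilution series to the MFI with secondary antibody only, live-gated cells by flow cytometry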
Experimental: as §1

[19] = molecular target: T3, HLA-A*02:01 presenting CARD8 170-178 peptide (…) (human); test: flow cytometry, peptide-pulsed T2 cells;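 note: ratio of peak mean fluorescence intensity across a 12-point threefold antibody dilution series to the MFI with secondary antibody only, live-gated cells by flow cytometry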
T3 construct: On peptide-pulsed T2 cells; also called T2 Pulsed CARD8 170-178
Experimental: as §1

[20] = molecular target: T4, HLA-A*02:01 presenting PCDHGC3 337-345 peptide (…) (human); test: flow cytometry, peptide-pulsed T2 cells;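 note: ratio of peak mean fluorescence intensity across a 12-point threefold antibody dilution series to the MFI with secondary antibody only, live-gated cells by flow cytometry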
T4 construct: On peptide-pulsed T2 cells; also called T2 Pulsed PCDHGC3 337-345
Experimental: as §1

[21] = molecular target: T5, HLA-A*02:01 presenting PSME2 145-153 peptide (…) (human); test: flow cytometry, peptide-pulsed T2 cells
T5 construct: On peptide-pulsed T2 cells; also called T2 Pulsed PSME2 145-153
Experimental: as §1

[22] = molecular target: T6, HLA-A*02:01 presenting AOX1 795-803 peptide (…) (human); test: flow cytometry, peptide-pulsed T2 cells
T6 construct: On peptide-pulsed T2 cells; also called T2 Pulsed AOX1 795-803
Experimental: as §1

[23] = molecular target: T7, HLA-A*02:01 presenting FN1 2182-2190 peptide (…) (human); test: flow cytometry, peptide-pulsed T2 cells
T7 construct: On peptide-pulsed T2 cells; also called T2 Pulsed FN1 2182-2190
Experimental: as §1

[24] = molecular target: T8, HLA-A*02:01 presenting NBAS 2063-2071 peptide (…) (human); test: flow cytometry, peptide-pulsed T2 cells
T8 construct: On peptide-pulsed T2 cells; also called T2 Pulsed NBAS 2063-2071
Experimental: as §1

[25] = molecular target: T9, HLA-A*02:01 presenting TEP1 2156-2164 peptide (…) (human); test: flow cytometry, peptide-pulsed T2 cells
T9 construct: On peptide-pulsed T2 cells; also called T2 Pulsed TEP1 2156-2164
Experimental: as §1

[26] = molecular target: T10, HLA-A*02:01 presenting MRPL37 334-342 peptide (…) (human); test: flow cytometry, peptide-pulsed T2 cells
T10 construct: On peptide-pulsed T2 cells; also called T2 Pulsed MRPL37 334-342
Experimental: as §1

[27] = molecular target: T11, HLA-A*02:01 presenting RABGAP1L 408-416 peptide (…) (human); test: flow cytometry, peptide-pulsed T2 cells
T11 construct: On peptide-pulsed T2 cells; also called T2 Pulsed RABGAP1L 408-416
Experimental: as §1

[28] = molecular target: T12, HLA-A*02:01 presenting SMIM11A 4-12 peptide (…) (human); test: flow cytometry, peptide-pulsed T2 cells
T12 construct: On peptide-pulsed T2 cells; also called T2 Pulsed SMIM11A 4-12
Experimental: as §1

[29] = molecular target: T13, HLA-A*02:01 presenting CNOT1 1965-1973 peptide (…) (human); test: flow cytometry, peptide-pulsed T2 cells
T13 construct: On peptide-pulsed T2 cells; also called T2 Pulsed CNOT1 1965-1973
Experimental: as §1

[30] = molecular target: T2, HLA-A*02:01 presenting MAGE-A4 286-294 …; test: cell-based or functional assay; remark: listed apart in the source

B1: bsAb6043 (bispecific antibody, V domains shown)
VH 1: QVQLVESGGGLVKPGGSLRLSCAASGFTFSEYYLTWIRQAPGKGLDWIAYISSSGYNIYYADSVKDRFTISRDNGKNSLFLQMNNLRAEDTAVYFCAREGVTDGMDVWGQGTTVTVSS
VH 2: EVQLVESGGGLVQPGRSLRLSCAASGFTFDDYSMHWVRQAPGKGLEWVSGISWNSGSKGYADSVKGRFTISRDNAKNSLYLQMNSLRAEDTALYYCAKYGSGYGKFYHYGLDVWGQGTTVTVSS
VL: DIQMTQSPSSLSASVGDRVTITCRASQSIDTFLNWYQQKPGKVPKLLIYAASNLESGVPSRFSGSGSGTVFTLTISRLQPEDFATYYCQQSYSIPPITFGQGTRVEIK
notes: Only variable regions are tied to the bispecific; also called MAGE-A4×CD3 (7221G) bispecific antibody
[1]
  Fold Activation, NF-κB luciferase, Jurkat + IM-9, with 2 nM mAb5705 (anti-CD28): 1.1 fold
  Fold Activation, NF-κB luciferase, Jurkat + U266, with 2 nM mAb5705 (anti-CD28): 0.9 fold
[2]
  EC50 (M), Jurkat/NF-κB-Luc reporter with pulsed T2 cells: 3e-10 M
  Fold change, Jurkat/NF-κB-Luc reporter with pulsed T2 cells: 75.3 fold
[3]
  EC50 (M), Jurkat/NF-κB-Luc reporter with pulsed T2 cells: > 2e-08 M
  Fold change, Jurkat/NF-κB-Luc reporter with pulsed T2 cells: 2.1 fold
[4]
  EC50 (M), Jurkat/NF-κB-Luc reporter with pulsed T2 cells: > 2e-08 M
  Fold change, Jurkat/NF-κB-Luc reporter with pulsed T2 cells: 1.8 fold
[5]
  EC50 (M), Jurkat/NF-κB-Luc reporter with pulsed T2 cells: > 2e-08 M
  Fold change, Jurkat/NF-κB-Luc reporter with pulsed T2 cells: 1 fold
[6]
  EC50 (M), Jurkat/NF-κB-Luc reporter with pulsed T2 cells: > 2e-08 M
  Fold change, Jurkat/NF-κB-Luc reporter with pulsed T2 cells: 1 fold
[7]
  EC50 (M), Jurkat/NF-κB-Luc reporter with pulsed T2 cells: > 2e-08 M
  Fold change, Jurkat/NF-κB-Luc reporter with pulsed T2 cells: 1.9 fold
[8]
  EC50 (M), Jurkat/NF-κB-Luc reporter with pulsed T2 cells: 3.3e-10 M
  Fold change, Jurkat/NF-κB-Luc reporter with pulsed T2 cells: 40.4 fold
[9]
  EC50 (M), Jurkat/NF-κB-Luc reporter with pulsed T2 cells: > 2e-08 M
  Fold change, Jurkat/NF-κB-Luc reporter with pulsed T2 cells: 1 fold
[10]
  EC50 (M), Jurkat/NF-κB-Luc reporter with pulsed T2 cells: > 2e-08 M
  Fold change, Jurkat/NF-κB-Luc reporter with pulsed T2 cells: 1.6 fold
[11]
  EC50 (M), Jurkat/NF-κB-Luc reporter with pulsed T2 cells: 3.5e-09 M
  Fold change, Jurkat/NF-κB-Luc reporter with pulsed T2 cells: 75.3 fold
[12]
  EC50 (M), Jurkat/NF-κB-Luc reporter with pulsed T2 cells: > 2e-08 M
  Fold change, Jurkat/NF-κB-Luc reporter with pulsed T2 cells: 1.9 fold
[13]
  EC50 (M), Jurkat/NF-κB-Luc reporter with pulsed T2 cells: > 2e-08 M
  Fold change, Jurkat/NF-κB-Luc reporter with pulsed T2 cells: 1.2 fold
[14]
  EC50 (M), Jurkat/NF-κB-Luc reporter with pulsed T2 cells: > 2e-08 M
  Fold change, Jurkat/NF-κB-Luc reporter with pulsed T2 cells: 1.1 fold
[15]
  EC50 (M), Jurkat/NF-κB-Luc reporter with pulsed T2 cells: > 2e-08 M
  Fold change, Jurkat/NF-κB-Luc reporter with pulsed T2 cells: 1.2 fold
[16]
  EC50 (M), Jurkat/NF-κB-Luc reporter with pulsed T2 cells: > 2e-08 M
  Fold change, Jurkat/NF-κB-Luc reporter with pulsed T2 cells: 1 fold
[17]
  S/N ratio: 244
[18]
  S/N ratio: 1
[19]
  S/N ratio: 1
[20]
  S/N ratio: 1
[21]
  S/N ratio: 1
[22]
  S/N ratio: 110
[23]
  S/N ratio: 1
[24]
  S/N ratio: 1
[25]
  S/N ratio: 1
[26]
  S/N ratio: 1
[27]
  S/N ratio: 1
[28]
  S/N ratio: 1
[29]
  S/N ratio: 1
[30]
  Fold Activation, NF-κB luciferase, Jurkat/NF-κB Luc + IM-9: 1.8 fold
  Fold Activation, NF-κB luciferase, Jurkat/NF-κB Luc + U266: 0.9 fold
